Data set [1] concerns RACPP with substrate GVAYSGA.
For data set [2], the system named is RACPP with substrate PLGC(me)AG.
Data set [3] concerns RACPP with substrate RLQLK(Ac)L.
The subject of data set [4] is RACPP with substrate TGRAAA.
For data set [5], the system named is RACPP with substrate TIAHLA.
The subject of data set [6] is RACPP with substrate YGRAAA.
For data set [7], the system named is RACPP with substrate PLGLEEA.

Chain of MMP-9 (chain, as listed by the source): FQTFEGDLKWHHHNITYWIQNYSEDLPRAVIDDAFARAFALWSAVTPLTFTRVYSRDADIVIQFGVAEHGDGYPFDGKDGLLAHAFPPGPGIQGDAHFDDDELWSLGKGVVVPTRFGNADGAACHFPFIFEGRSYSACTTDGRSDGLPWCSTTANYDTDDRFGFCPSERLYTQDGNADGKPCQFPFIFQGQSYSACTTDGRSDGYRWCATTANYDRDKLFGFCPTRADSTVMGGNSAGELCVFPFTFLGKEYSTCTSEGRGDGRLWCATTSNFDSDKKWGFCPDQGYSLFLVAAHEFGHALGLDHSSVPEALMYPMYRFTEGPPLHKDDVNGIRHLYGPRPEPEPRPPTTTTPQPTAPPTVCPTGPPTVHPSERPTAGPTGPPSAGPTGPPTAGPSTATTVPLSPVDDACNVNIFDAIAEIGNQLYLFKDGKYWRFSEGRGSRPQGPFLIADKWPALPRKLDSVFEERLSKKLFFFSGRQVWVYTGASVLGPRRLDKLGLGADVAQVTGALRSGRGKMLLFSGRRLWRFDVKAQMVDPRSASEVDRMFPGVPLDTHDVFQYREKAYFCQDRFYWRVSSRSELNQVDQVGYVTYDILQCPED

Elastase: the Kcat/Km is 4550 in data set [1]; 4000 in data set [2]; 13400 in data set [3]; 349 in data set [4]; 18200 in data set [5]; 943 in data set [6].

As to MMP-9, the Kcat/Km worked out at 13500 in data set [2] and 1480 in data set [7].

The record behind these values is patent publication US20220288223.
